Reference: patent US20210115153A1 (PEPTRON, published 2021)

Target: T1, recombinant hMUC1-C (rhMUC1-C) protein (human, UniProt P15941 961-1152)
T1 construct: Expressed in E. coli Rosetta (not glycosylated), purified from inclusion bodies in 8 M urea over Ni-NTA; also called hMUC1-C terminal protein; not shown: C-terminal His-tag of vector pET-22b
T1 sequence: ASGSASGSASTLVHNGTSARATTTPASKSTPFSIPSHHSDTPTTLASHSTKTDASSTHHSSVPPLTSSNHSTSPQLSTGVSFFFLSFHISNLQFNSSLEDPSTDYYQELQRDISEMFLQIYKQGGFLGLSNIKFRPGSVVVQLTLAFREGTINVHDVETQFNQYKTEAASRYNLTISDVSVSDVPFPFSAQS
Assay: ELISA of hybridoma culture supernatant on coated rhMUC1-C
Description: The total amount of rhMUC1-C-specific IgG was measured by ELISA. A 96-well immunoplate was coated with 10 […] of rhMUC1-C protein (Example 2) and blocked with bovine serum albumin (BSA) in PBS-T (PBS containing 0.1% (v/v) Tween-20). The mouse serum immunized in Example 5, hybridoma cell culture supernatant, or purified antibody was diluted with PBS-T and cultured at room temperature for 2 hours. The plate was washed 3 times with PBS-T and cultured with a goat anti-mouse IgG HRP-conjugated secondary antibody for 1 hour. The plate was developed using TMB substrate solutions A and B (1:1 ratio) (Kirkegaard and Perry Laboratories, Gaithersburg, Md., USA), the absorbance was measured at 450 nm using a Spectra Max 250 microplate reader (Molecular Devices, Sunnyvale, USA), and a colorimetric assay was performed.
The spleen cells from mice immunized with rhMUC1-C protein in Example 5 were fused with SP2/0 myeloma cells (ATCC) using polyethylene glycol (PEG, Sigma-Aldrich). The fused cells were cultured and selected as a hypoxanthine-aminopterin-thymidine (HAT, Sigma-Aldrich) medium. The culture supernatant of the selected hybridoma cells was subjected to testing for binding to rhMUC1-C protein through ELISA and hybridoma cells, which were positive for binding, i.e., produced rhMUC1-C protein-specific antibody, were screened. […]

binding result: binds
B1: anti-hMUC1 monoclonal antibody purified from hybridoma hMUC1-1H7 (KCLRF-BP-00395) (antibody, V domains shown)
VH: EVQLQQSGAELAKPGASVKMSCKVSGYTFTSYWMHWVKQRPGQGLEWIGYINPGTGYIEYNQKFKDKATLTADKSSSTAYMQLSSLTSEDSAVYYCASSTAPFDYWGQGTTLTVSS
VL: DIVITQSPSSMYASLGERVTITCKASQDIKSYLSWYQQKPWKSPKTLIYYATRLADGVPSRFSGSGSGQDYSLTISSLESDDTATYYCLQYDESPYTFGGGTKLEIKR
notes: also called anti-hMUC1 antibody; anti-hMUC1-C mouse antibody (1H7)
